The results in this text go back to paper PMC9241776, “Azole Resistance-Associated Regulatory Motifs within the Promoter of cyp51A in Aspergillus fumigatus”.

The data set concerns the target T1, AtrR (Zn2Cys6 cluster and coiled-coil) (Aspergillus fumigatus, UniProt Q4WI89 50-160).
T1 sequence: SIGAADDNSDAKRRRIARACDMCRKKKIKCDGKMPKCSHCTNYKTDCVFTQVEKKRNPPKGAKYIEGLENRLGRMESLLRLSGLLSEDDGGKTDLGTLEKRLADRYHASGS
Description: SPR; largely unaffected; SPR as in earlier publications; binding buffer and temperature not in the material (SEC buffer for AtrR and SrbA: 20 mM HEPES, 150 mM NaCl); 1:1 model with mass transport. To be noted: protein: recombinant; tags: N-terminal MBP, removed by TEV; chain copies: 2. (Surface plasmon resonance follows binding to a sensor surface in real time, without labels.)

B1: Pcyp51A SrbA* (dsDNA)
DNA 1: TCTAGAATTCCGAAGTCCGGATGTGTGCTGAGCCGAATGAA
DNA 2: TTCATTCGGCTCAGCACACATCCGGACTTCGGAATTCTAGA
As for B1, the binding result is given as “binds”.
